US20190359683A1

Target: recombinant human cardiotrophin-like cytokine factor 1 (CLCF1) (human) (UniProt Q9UBD9)
Experiment: yeast display binding

recombinant human cardiotrophin-like cytokine factor 1 (CLCF1) (human), sequence (Q9UBD9 28-225): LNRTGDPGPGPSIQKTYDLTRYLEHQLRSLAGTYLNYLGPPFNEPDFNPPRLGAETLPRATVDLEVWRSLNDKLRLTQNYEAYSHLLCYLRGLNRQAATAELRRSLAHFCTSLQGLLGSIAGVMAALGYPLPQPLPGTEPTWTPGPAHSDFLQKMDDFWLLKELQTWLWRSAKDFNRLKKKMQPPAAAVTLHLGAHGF

Kd: 0.014 nM
Substance: yeast-displayed eCNTFR (variant 4 with Y177H and K178N) (from UniProt P26992 20-342)
